Results on three molecules are retold here after patent US20240309084A1 (Novartis, published 2024).

Where two headings read alike, the source gives them in different places.

The labels stand for the following.
B2: GalNAc-labeled LDLR conjugate (LDLR193 (193-720)(N515Q)(N657Q)_SrtA_CHis) (receptor)
chain: not shown
modifications: C-terminal sortase A ligation to GGG-triGalNAc at the LPETGG motif
notes: also called GalNAc trimer-anti-LDLR protein conjugate
B3: recombinant extracellular domain of human ASGPR1 with N-terminal biotinylated Avitag (receptor, UniProt P07306 62-291, looked up)
chain: QNSQLQEELRGLRETFSNFTASTEAQVKGLSTQGGNVGRKMKSLESQLEKQQKDLSEDHSSLLLHVKQFVSDLRSLSCQMAALQGNGSERTCCPVNWVEHERSCYWFSRSGKAWADADNYCRLEDAHLVVVTSWEEQKFVQHHIGPVNTWMGLHDQNGPWKWVDGTDYETGFKNWRPEQPDDWYGHGLGGGEDCAHFTDDGRWNDDVCQRPYRWVCETELDKASQEPPLL
modifications: biotin on the N-terminal Avitag
notes: extracellular domain; also called hASBPR1; AGSPR1; not shown: N-terminal Avitag

The target in assay [1] is B3. Kind of assay: SPR, independently immobilized ASGPR. As to the method: (§1) ASGPR SPR experiments were performed on either Biacore T200 or Biacore 8K. The assay was optimized for Biacore SA chip in running buffer consisting of 20 mM HEPES, 300 mM NaCl, 2 mM CaCl₂), 0.01% tween-20, 2% DMSO, pH 7.4. Recombinant extracellular domain of human ASGPR1 with N-terminal biotinylated Avitag was diluted to 20 μg/mL in running buffer, and immobilized onto SA chip after it was preconditioned with at least four 60-second injections at 30 μL/min of 1 M NaCl/40 mM NaOH solution. Protein immobilization level varied from 500 RU to 3500 RU dependent on analytes' molecular weight, for targeted Rmax of 30 RUs. Direct binding of analytes to ASGR1 was observed when a dose response titration of analytes in 2% DMSO was flown over the immobilized protein. Data analysis was done on either Biacore T200 Evaluation Software or Biacore Insight Evaluation Software.
Background: In SPR one partner is held on a chip, and binding of the other changes the refractive index at the surface.

The target of assay [2] is T1, purified recombinant full length human PCSK9 with C-terminal biotinylated Avitag (human, UniProt Q8NBP7 31-692, biotin on the C-terminal Avi-tag).
T1 construct: Signal peptide removal and autocatalytic prodomain cleavage are not described for the construct; also called hPCSK9; full length hPCSK9; not shown: Avi-tag
Kind of assay: SPR, independently immobilized PCSK9.

Assay [3] concerns the target B3. Nature of the assay: SPR, stepwise (single-cycle) injections of the bispecific Ab over immobilised hASGPR1. The procedure: as §1
Assay [4] has as its target T2, His-ASGPR1(62-291) (UniProt P07306 62-291).
T2 construct: range 62-291; also called ASGPR1 (analyte of the sandwich SPR assay); not shown: His tag
T2 sequence (looked up): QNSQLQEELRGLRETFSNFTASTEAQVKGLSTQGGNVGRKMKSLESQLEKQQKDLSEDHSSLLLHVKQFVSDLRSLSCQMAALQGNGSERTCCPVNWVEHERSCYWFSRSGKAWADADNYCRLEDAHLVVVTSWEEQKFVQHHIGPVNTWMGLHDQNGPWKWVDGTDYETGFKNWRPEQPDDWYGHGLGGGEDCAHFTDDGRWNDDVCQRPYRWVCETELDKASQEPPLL
Nature of the assay: SPR, ternary format; panel title: hASGPR1 Binding Immobilized Bispecific Ab Bound to hPCSK9.

The target of assay [5] is T1, purified recombinant full length human …. Kind of assay: SPR, 1:1 binding fit, stepwise injections over avi-PCSK9.
Assay [6] has as its target B2. Nature of the assay: SPR, 1:1 fit, stepwise injections over avi_deglycosylated_ASGPR1.
Assay [7] concerns the target T3, triGalNAc-PCSK9 conjugate 4 (GalNAc-labeled PCSK9) (human, UniProt Q8NBP7 31-692, triGalNAc with a short PEG linker on a single solvent exposed lysine (position not given)).
T3 construct: It is not clear whether the PCSK9 was biotinylated before conjugation; also called triGalNAc-hPCSK9 4; GalNAc trimer-PCSK9 protein conjugate; not shown: Avi-tag
Nature of the assay: SPR, 1:1 binding fit, stepwise injections over ASGPR1; table under FIG. 16B. As to the method: as §1

In assay [8] the target is T3, triGalNAc-PCSK9 conjugate 4 …. The assay is described as above. The procedure: as §1
The source holds these as a separate data set.

B1: anti-ASGPR-PCSK9 bispecific antibody (ASGPR_4F3_scFv-PCSK9_Fab_DANAPA_hIgG1_KiH) (bispecific antibody)
light: not shown
chain: not shown
heavy: QVQLVQSGAEVKKPGASVKVSCKASGYTFTSYYMHWVRQAPGQGLEWMGEISPFGGRTNYNEKFKSRVTMTRDTSTSTVYMELSSLRSEDTAVYYCARERPLYASDLWGQGTTVTVSSASTKGPSVFPLAPSSKSTSGGTAALGCLVKDYFPEPVTVSWNSGALTSGVHTFPAVLQSSGLYSLSSVVTVPSSSLGTQTYICNVNHKPSNTKVDKRVEPKSCDKTHTCPPCPAPELLGGPSVFLFPPKPKDTLMISRTPEVTCVVVAVSHEDPEVKFNWYVDGVEVHNAKTKPREEQYASTYRVVSVLTVLHQDWLNGKEYKCKVSNKALAAPIEKTISKAKGQPREPQVCTLPPSREEMTKNQVSLSCAVKGFYPSDIAVEWESNGQPENNYKTTPPVLDSDGSFFLVSKLTVDKSRWQQGNVFSCSVMHEALHNHYTQKSLSLSPGK
notes: also called ASGPR-PCSK9 bispecific antibody 5; bispecific ASGPR-PCSK9 Ab 5
As to B1, the dissociation constant Kd in assay [1] worked out at 3 nM; in assay [2], 0.2 nM; in assay [3], 2.73 nM; in assay [4] it was 3.27 nM. In addition, the results for the koff in assay [3] and in assay [4] were 0.000527 s⁻¹ and 5.93e-05 s⁻¹, respectively. Moreover, the results for the kon in assay [3] and in assay [4] were 193000 M⁻¹ s⁻¹ and 18200 M⁻¹ s⁻¹, respectively.

As to B2, the Kd in assay [5] was 156 nM.

Consider B3, for which the Kd in assay [6] was found to be 1.34 nM; in assay [7] it was 0.299 nM; in assay [8], 0.175 nM.

By Kd is commonly meant the free concentration of one partner at which half of the binding sites on the other are occupied at equilibrium, for simple one-to-one binding. The term koff denotes the first-order rate constant of dissociation. What is called kon is the rate constant with which the complex forms.
